B1: Seq. ID 21: 187 amino acid conjugate: human Histatin 5, Elastase B cleavage sequence RGGGLA, Gly-Ser linker, VHH Seq. ID6 (conjugate)
chain: MGDSHAKRHHGYKRKFHEKHHSHRGYDVRGGGLAGGGGSGGGGSGGGGSHMDVQLQESGGASVQPGGSLLISCEASGLASYSNYCIMWFRQPPGKEREGVAGINLRSGITYYAEAVRPRFTISADSVDGRFAISQDNARNTVYLQMNSLKPEDTAIYYCAAGNLCGGSWSGYRYWGQGTQVTVSSLE
modifications: Antibody fragment based antimicrobial conjugate
notes: ID6
B2: Seq. ID 6: camelid heavy chain antibody variable region fragment (VHH) specific to Pseudomonas aeruginosa antigen C4 decarboxylase transporter (protein, listed as Camelus dromedarius)
VHH: DVQLQESGGASVQPGGSLLISCEASGLASYSNYCIMWFRQPPGKEREGVAGINLRSGITYYAEAVRPRFTISADSVDGRFAISQDNARNTVYLQMNSLKPEDTAIYYCAAGNLCGGSWSGYRYWGQGTQVTVSS

Legend:
P. aeruginosa [1] = experiment: Kill kinetics by ATP measurement (bacterial live dead assay); type: cell-based, Pseudomonas aeruginosa; conditions: ATP at different time points, FIG. 7; Histatin 5 and Seq. ID 21 compared with each other
Description: FIG. 7 is a representative graph showing the kill kinetics of Seq. ID 21, Seq. ID 6, on P. aeruginosa with Histatin 5, positive control—Meropenem, and negative controls—media and culture.
Kill kinetics was done by measuring the adenosine triphosphate (ATP) during different time points using the bacterial live dead assay. […] ID 21 was similar showing bactericidal activity was due to the released Histatin on contact with the Pseudomonas. A positive control used was antibacterial Meropenem drug to show the efficiency of killing. […] The VHH antibody Seq.

Pseudomonas aeruginosa = experiment: Microbiological agar-plate assay for bactericidal activity (MIC-99, MIC-50); type: cell-based; conditions: for MIC-50 (minimal inhibitory concentration for killing 50% microorganisms) / MIC-99 (minimal inhibitory concentration for killing 99% microorganisms): in vitro, agar-plate assay; for MIC-99 (minimal inhibitory concentration for killing 99% microorganisms): FIG. 5, Seq. ID6 value printed with 'anaerobic conditions'
Experimental: FIG. 5 is representative microbiological agar-plate assay to determine MIC-99 of purified Seq. ID 21, and Seq. ID 6;
Microbiology assays were done with the purified VHH with Seq. ID 6 and the antibody fragment based antimicrobial conjugate of Seq. ID 21 to see their bactericidal activity. As depicted in FIG. 5, the MIC-99 of the Seq. […] ID21 with a value less than 0.5 μM. The MIC-50 of Seq. ID 6 antibody fragment alone was less than 2.5 μM and that of Seq. ID 21 was less than 0.125 μM.

P. aeruginosa [2] = experiment: Turbidity test of P. aeruginosa culture; type: cell-based, Pseudomonas aeruginosa; conditions: treated versus untreated control, visual, FIG. 4b
Experimental: FIG. 4b is a representative image of turbidity test of P. aeruginosa culture in the presence (Treated) and the absence (Control) of purified Seq. ID 21;
FIG. 4b represents a turbidity test, wherein sample of the pathogen P. aeruginosa was either left untreated (Control) or was treated by addition of purified Seq. ID 21 (Treated) prodrug.

[3] = tested on: whole cell Pseudomonas spp.; experiment: Whole cell ELISA binding; conditions: FIG. 6a
Description: FIG. 6a is a representative graph depicting the binding affinity of Seq. ID21 and Seq. ID 6 to whole cell Pseudomonas spp. in an ELISA assay;
Whole cell ELISA using Pseudomonas spp. were used to determine the binding properties of the conjugate with Seq. ID 21, and VHH Seq. ID 6. […] ID 21. Both the molecules Seq. ID 21 and Seq.

Molecule | Bactericidal activity in kill kinetics (P. aeruginosa [1]) | Reduction of MIC-99 relative to Seq. ID6 antibody fragment alone (Pseudomonas aeruginosa; conjugate versus VHH alone) [fold] | MIC-50 (minimal inhibitory concentration for killing 50% microorganisms) (Pseudomonas aeruginosa) | MIC-99 (minimal inhibitory concentration for killing 99% microorganisms) (Pseudomonas aeruginosa) | Turbidity of P. aeruginosa sample after treatment (P. aeruginosa [2]) | Binding ability to whole cell Pseudomonas spp. after conversion of the antibody to conjugate ([3]; ELISA) | Biological activity [3]
Histatin 5 [reference compound] | similar | – | – | – | – | – | –
B1 | similar | 20 | less than 0.125 μM | less than 0.5 μM | visually reduced | no loss of binding ability | showed the desired biological activity
B2 | – | – | less than 2.5 μM | 10 µM | – | – | showed the desired biological activity

Source: US20240091375A1, “AN ANTIBODY FRAGMENT BASED ANTIMICROBIAL CONJUGATE SELECTIVELY TARGETING PSEUDOMONAS” (priority 2020, published 2024)
